Measured values as given in PMC9352930 (2022).
One block for each binder: values may come before it.

Columns and labels:
iC3b [1] = molecular target: iC3b (human); experiment: BLI
[2] = molecular target: T1, C3b (proteolytic fragment of complement component C3) (human, UniProt P01024 749-1663; P01024 749-1663); experiment: BLI
[3] = molecular target: native complement component C3 (human); experiment: SPR
[4] = molecular target: T1, C3b (proteolytic fragment of complement …); experiment: SPR
C3 methylamine = C3 methylamine (human, treated with methylamine); experiment: SPR
iC3b [5] = molecular target: iC3b (human); experiment: BLI; remark: listed apart in the source
[6] = molecular target: T1, C3b (proteolytic fragment of complement …); experiment: BLI; remark: listed apart in the source

T1 sequence (P01024 23-667, chain 1 of 2): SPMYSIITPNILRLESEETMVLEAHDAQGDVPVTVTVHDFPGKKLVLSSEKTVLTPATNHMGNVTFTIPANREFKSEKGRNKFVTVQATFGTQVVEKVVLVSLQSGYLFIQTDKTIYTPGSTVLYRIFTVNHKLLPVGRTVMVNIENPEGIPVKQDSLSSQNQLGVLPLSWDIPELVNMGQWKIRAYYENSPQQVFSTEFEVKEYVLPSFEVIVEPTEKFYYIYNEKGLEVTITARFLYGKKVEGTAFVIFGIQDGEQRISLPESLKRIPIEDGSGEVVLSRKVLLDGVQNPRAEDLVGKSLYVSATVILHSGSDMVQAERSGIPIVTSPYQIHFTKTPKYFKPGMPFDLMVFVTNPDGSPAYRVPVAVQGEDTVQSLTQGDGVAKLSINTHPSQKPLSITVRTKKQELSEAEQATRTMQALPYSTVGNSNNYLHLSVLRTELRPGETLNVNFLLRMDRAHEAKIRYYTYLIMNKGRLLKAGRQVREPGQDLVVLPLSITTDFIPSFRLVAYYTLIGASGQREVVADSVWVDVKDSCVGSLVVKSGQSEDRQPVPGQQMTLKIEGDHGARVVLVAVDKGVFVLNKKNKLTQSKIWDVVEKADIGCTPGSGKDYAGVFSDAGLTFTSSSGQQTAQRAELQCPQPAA
T1 sequence (P01024 749-1663, chain 2 of 2): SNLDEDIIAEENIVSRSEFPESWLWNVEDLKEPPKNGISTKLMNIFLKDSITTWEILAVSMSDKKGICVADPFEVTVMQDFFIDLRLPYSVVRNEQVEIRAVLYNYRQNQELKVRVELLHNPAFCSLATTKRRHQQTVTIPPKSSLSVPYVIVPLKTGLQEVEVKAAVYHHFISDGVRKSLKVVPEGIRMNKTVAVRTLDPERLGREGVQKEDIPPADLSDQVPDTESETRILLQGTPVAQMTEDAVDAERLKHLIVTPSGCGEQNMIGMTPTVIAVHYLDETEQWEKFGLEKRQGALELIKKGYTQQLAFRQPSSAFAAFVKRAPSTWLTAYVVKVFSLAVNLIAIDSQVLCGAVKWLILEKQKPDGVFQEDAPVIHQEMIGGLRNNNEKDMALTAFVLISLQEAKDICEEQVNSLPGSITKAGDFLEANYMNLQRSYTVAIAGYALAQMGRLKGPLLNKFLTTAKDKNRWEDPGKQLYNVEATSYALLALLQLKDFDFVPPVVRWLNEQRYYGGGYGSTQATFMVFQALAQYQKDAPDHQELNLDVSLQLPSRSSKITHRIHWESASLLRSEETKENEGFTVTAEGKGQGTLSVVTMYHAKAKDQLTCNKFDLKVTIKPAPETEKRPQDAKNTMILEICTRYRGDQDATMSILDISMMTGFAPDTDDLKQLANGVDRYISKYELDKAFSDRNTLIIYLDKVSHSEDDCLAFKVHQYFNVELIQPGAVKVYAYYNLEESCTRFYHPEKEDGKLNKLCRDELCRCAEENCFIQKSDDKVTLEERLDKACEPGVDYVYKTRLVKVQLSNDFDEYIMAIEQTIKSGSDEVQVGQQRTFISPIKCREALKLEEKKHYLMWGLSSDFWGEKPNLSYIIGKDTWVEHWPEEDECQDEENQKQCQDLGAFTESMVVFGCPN
Sequence of iC3b (human) (chain, as listed by the source, chain 1 of 3): as the sequence (P01024 23-667, chain 1 of 2) above
Sequence of iC3b (human) (chain, as listed by the source, chain 2 of 3): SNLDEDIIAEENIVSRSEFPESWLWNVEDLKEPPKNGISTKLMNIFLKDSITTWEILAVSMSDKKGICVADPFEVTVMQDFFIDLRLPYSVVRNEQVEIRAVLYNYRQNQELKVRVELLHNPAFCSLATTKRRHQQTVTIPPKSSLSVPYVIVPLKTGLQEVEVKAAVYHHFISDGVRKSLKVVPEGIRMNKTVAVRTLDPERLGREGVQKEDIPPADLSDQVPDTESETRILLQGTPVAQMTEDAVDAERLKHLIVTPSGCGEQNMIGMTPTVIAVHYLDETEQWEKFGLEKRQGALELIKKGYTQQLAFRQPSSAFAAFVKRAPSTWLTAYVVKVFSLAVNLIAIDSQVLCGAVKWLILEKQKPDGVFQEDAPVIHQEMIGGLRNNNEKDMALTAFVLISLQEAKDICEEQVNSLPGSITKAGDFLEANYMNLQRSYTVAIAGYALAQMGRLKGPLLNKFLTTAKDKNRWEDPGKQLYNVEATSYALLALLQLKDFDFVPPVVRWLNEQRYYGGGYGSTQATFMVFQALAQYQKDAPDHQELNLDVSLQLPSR
Sequence of iC3b (human) (chain, as listed by the source, chain 3 of 3): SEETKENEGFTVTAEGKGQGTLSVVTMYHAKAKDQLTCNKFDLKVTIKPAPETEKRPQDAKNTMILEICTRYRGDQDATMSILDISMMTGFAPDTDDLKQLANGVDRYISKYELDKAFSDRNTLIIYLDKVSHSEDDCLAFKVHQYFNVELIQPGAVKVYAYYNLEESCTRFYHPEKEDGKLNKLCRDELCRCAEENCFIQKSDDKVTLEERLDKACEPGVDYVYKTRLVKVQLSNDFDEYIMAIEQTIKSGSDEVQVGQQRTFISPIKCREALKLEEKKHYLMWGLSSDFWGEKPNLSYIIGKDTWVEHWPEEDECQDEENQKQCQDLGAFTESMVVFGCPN
Sequence of C3 methylamine (human, treated with methylamine) (chain, as listed by the source, chain 1 of 2): as the sequence (P01024 23-667, chain 1 of 2) above
Sequence of C3 methylamine (human, treated with methylamine) (chain, as listed by the source, chain 2 of 2): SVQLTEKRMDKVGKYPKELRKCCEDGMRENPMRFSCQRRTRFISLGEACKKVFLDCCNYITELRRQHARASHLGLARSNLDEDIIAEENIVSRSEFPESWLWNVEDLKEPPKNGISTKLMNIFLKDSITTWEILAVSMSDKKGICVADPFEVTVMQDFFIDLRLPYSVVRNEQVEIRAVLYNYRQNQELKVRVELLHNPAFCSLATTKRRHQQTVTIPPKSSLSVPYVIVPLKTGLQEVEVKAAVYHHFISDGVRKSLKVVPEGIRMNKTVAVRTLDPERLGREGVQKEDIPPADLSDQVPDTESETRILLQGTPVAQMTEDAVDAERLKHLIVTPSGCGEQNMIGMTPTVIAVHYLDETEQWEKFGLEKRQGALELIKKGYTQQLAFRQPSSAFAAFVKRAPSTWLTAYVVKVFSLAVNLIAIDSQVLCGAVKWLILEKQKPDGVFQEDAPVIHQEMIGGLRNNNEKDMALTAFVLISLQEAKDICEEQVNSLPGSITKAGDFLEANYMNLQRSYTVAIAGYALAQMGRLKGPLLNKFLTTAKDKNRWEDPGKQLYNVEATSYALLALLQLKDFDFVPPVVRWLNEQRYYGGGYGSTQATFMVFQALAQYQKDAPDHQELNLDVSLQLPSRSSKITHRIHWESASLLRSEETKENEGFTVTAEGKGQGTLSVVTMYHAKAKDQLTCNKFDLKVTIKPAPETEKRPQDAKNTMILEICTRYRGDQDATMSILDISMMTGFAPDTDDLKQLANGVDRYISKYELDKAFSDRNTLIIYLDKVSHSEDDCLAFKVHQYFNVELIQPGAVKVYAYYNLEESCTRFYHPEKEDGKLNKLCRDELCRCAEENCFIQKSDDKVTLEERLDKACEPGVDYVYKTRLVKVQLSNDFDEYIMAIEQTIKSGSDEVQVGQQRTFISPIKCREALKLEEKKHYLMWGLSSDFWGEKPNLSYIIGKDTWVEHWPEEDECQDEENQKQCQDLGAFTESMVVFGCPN
Sequence of native complement component C3 (human) (chain, as listed by the source, chain 1 of 2): as the sequence (P01024 23-667, chain 1 of 2) above
Sequence of native complement component C3 (human) (chain, as listed by the source, chain 2 of 2): as the sequence (chain, as listed by the source, chain 2 of 2) above

Kd (iC3b [1]): 8.9 nM
Kd [2]: 7.1 nM
B1: EWEnH fusion protein (EWE fused to FH CCP2-4) (other)
chain: EWEQVQLVETGGGLVQAGGSLRLSCAASGSIFSINAMGWFRQAPGKEREFVATINRSGGRTYYADSVKGRFTISRDNGKNMVYLQMHSLKPEDTAIYYCAAGTGWSPQTDNEYNYWGQGTQVTVSSRPCGHPGDTPFGTFTLTGGNVFEYGVKAVYTCNEGYQLLGEINYRECDTDGWTNDIPICEVVKCLPVTAPENGKIVSSAMEPDREYHFGQAVRFVCNSGYKIEGDEEMHCSDDGFWSKEKPKCVEISCKSPDVINGSPISQKIIYKENERFQYKCNMGYEYSERGDAVCTESGWRPLPSCEE

koff [3]: 0.000105 s⁻¹
koff [4]: 8.6e-05 s⁻¹
koff (C3 methylamine): 7.6e-05 s⁻¹
B2: avi-tagged, biotinylated EWE nanobody (VHH)
VHH: QVQLVETGGGLVQAGGSLRLSCAASGSIFSINAMGWFRQAPGKEREFVATINRSGGRTYYADSVKGRFTISRDNGKNMVYLQMHSLKPEDTAIYYCAAGTGWSPQTDNEYNYWGQGTQVTVSS
modifications: biotin

koff (iC3b [5]): 0.00026 s⁻¹
koff [6]: 0.00037 s⁻¹
B3: EWE-hC3Nb1 nanobody, bacterially expressed (VHH)
VHH: B2 VHH
